Our source for the protein production values is a protein production outcome set (Wang et al. 2014).

The nature of this series: label from the status in PepcDB records.
In the case of “MRYEKMNQEILAAIGGEENIQSVVHCATRLRFVLKDESKADDKKAEAIDGILQVVKKGGQYQLVIGNNVEDVYDDLINMIHIETSDSNKPKKKQNLFDAIIGAITGSIAPAIPLLAGAGMGKVLLLILTICHVLSDKSQTYQLLNLIFDTGYYFMPAYVGFSAAKIFNTDRMLGAFIGLMTVHPSWVQIVTTNKPFHFLGLPVPLVQYSSTLITAILSVWIMSYIYKFVRKITPGMVKVFMEPMLTMLITGPLVFLIIGPISNWISEGIGFIAMWLFRNAGVIAIPILAALYPWLVSIGIHKALSPISIQLVATQGFDPIIRVVALCSNMSQAAASLAVGLKTKNKKLKSLALSSSVTAYLGGITEPALFGVNLRLKKPMYGAMIGGAIAGIVASFMKLKAFIYVTPAFLSLPMWISKTENFVVQAIIVIIVASVATFIATWIIGFDDPIDEDQVKNAKKEEKKNFDKDHKKHELHAPVKGQLEDISKVADPTFASGVMGKGIAIVPSEGKIFAPEDGVVTAIFDTHHAIGLHLSNDADVLIHVGIDTVEMKGKGFKQLVQKGDKVTAGQELLDFNIDEIKKNGYDPTVVMIVTNSKDFLEVLTVLKDKDATKEVTNQDNVIILA”, the protein production result is on record as “failed”. Next, “MNLKTLKIFIEGYGCTLNTADTNIINNSIKKFKNFIIVNNLDDADIVVINTCVVRLETEHKMISRINYIKSLNKYIVIAGCMPKALKKKAEKINPDILIMPKEAHLIGDIIYNYFKNNIGNENNADNKIEDSMKCGELPHNQASSSGNYNDIDNKLTQLKPNNLIMPLPISEGCTGKCTYCIVKIARGRLASYNPDKIINKAKEFVDNGVKQMLITSQDTACYGFDKNTTLPTLLNEICQIKGDFNIRIGMMHAKNVPMIIDELIDRYKDDKITKFFHLPIQSGDDDVLRAMKREYTVDEYMDIAMEFKRKIKDLNFNTDVIVGFPTETEDNFNNTIELLKKLKPDAIHGAKYTQRKGTEADRLKQVDTKIRKERMKILDKLRKEFSLENHEKYVGKIMPCLIVGKNEGITHNCKTVKFENCEDVKIGEFRKIKIKEALTFGLYGEIIN”: “failed”.

Take “MRRLNLILLLSAVTAALAFVISCKETNAERLEKMCGEWVSTGGKPPFTLWEEDGRYRVTVMHRNHTGGSEAETYLVRETEGVLFIETGFAVMMDYDREKDRIRLSPGGEYRRKSDGTLKQ”: the protein production result was “failed”. For “MSSSIEIFPDSDILVAAAGKRLVGAIGAAVAARGQALIVLTGGGNGIALLRYLSAQAQQIEWSKVHLFWGDERYVPEDDDERNLKQARRALLNHVDIPSNQVHPMAASDGDFGGDLDAAALAYEQVLAASAAPGDPAPNFDVHLLGMGPEGHINSLFPHSPAVLESTRMVVAVDDSPKPPPRRITLTLPAIQRSREVWLLVSGPGKADAVAAAIGGADPVSVPAAGAVGRQNTLWLLDRDAAAKLPS”, the protein production result is reported as “not failed”. Regarding “MPRPLVDEVRFLRSWIEKPLHMGAVMPSGKLLARTMARYVDIQSDGPVIELGPGTGAITNALVEHGVDQKRLVLLEFDPGFCALLRERFPLAKVVQGDAYRLRDSLWDALEIPATAVVSGLPLVTKPMLTRMKLIRDAFTLLEPGAPFVQFTYSVAPPIPKSLPGVSTEGSERIWMNVPPARVWVYRKRLEHHHHHH”, the protein production result is recorded as “not failed”. Then “MALQAGVEKGENLVVAAPTGSGKTFIALVAIVNSLARAGGRAFYLVPLKSVAYEKYTSFSILSRMGLKLKISVGDFREGPPEAPVVIATYEKFDSLLRVSPSLARNVSVLIVDEIHSVSDPKRGPILESIVSRMLASAGEAQLVGLSATVPNAGEIAEWIGGKIVESSWRPVPLREYVFKEYKLYSPTGGLREVPRVYGLYDLDLAAEAIEDGGQALVFTYSRRRAVTLAKRAAKRLGRRLSSREARVYSAEASRAEGAPRSVAEELASLIAAGIAYHHAGLPPSLRKTVEEAFRAGAVKVVYSTPTLAAGVNLPARRVVIDSYYRYEAGFREPIRVAEYKQMAGRAGRPGLDEFGEAIIVAERLDRPEDLISGYIRAPPERVESRLAGLRGLRHFILGIVAPEGEVSIGSIEKVSGLTLYSLQRGLPRETIARAVEDLSAWGLVEVKGWRIAATSLGREVAAVYLDPESVPVFREEVKHLSFDNEFDILYLISTMPDMVRLPATRREEERLLEAILDASPRMLSSVDWLGPEEMAAVKTAVVLKLWIDEASEDTIYGEWGVHTGDLLNMVSTAEWIASGLSRIAPYLGLNSKVSHILSVIARRIKHGVKPELLQLVEIPGVGRVRARILFEAGYRSIEDLATARAEDLMRLPLIGPSTARQILEFLGRVDEAREAEAREMLARKGLLSYLEGDAVAGEEGE”, with “failed”; and “MTLPSTPMPPAGSRKILLDDFQHVGSESHLGQCVNRSWTRHNCGHLENASIICTSEGMALSPHLDGNRQPSNLDNLREKAFLYQRHQHLLKFHHQLPAAGACMEVRLLNGTGRCLGRVEVLIQGTWGTVCDHFWNLAEAAVVCRQLQCGQAMAAHFGASSGKVLLDDMQCVGSKSHLGRCVHRGWARHNCGHLEDASVICAGEGLVVNLHLEGCF”, with “failed”. Regarding “MLIVDTILKPDRFGGIGLFSATRLPKGSLIWIHNPIVDITVTPEQYEALAPTFQALLDKHAYPRDYKAYDGVIEYNADNARFMNHSSRPNTYQDDRRVFTARDVQPGEELTCNYLFFDPRCDVSWNEEPSMNLDAPTG”, the protein production result is on record as “failed”. Then “MTVNVENVEPELNIEIGPNWFASVMGTGIIANAAVGLPMVGQYLGQAGLVIWVIASLMLIVMLLLKAVQTITNPHIIKRQFNDPVMAQFFGAPPMALLTIAGGTLLFGHHFFAQDTLMVIAWSLWITGTIVGMMTAVIIPYRLFTHHEVRGDAAFGGWLMPVVPPMVSAAIGAMFIPHVQDTLLQQTLLYACYAMFGTSLIAAMIILTLIWGRLVHSGTSGGARVPTLWLVLGPLGQSITAAGALGAVALAVVEQPIAGSLNTMAILYGVPVWGFAFYWSILASFLTLRALRRKMPFALTWWAFTFPVGTCVTGTTQLALHTGLPAFEWAAVILFAGLLCAWVIAALGTIKGIKTGHIMKNPVSSPVIIAKKGPR”, with “failed”; and “MRKKKDGQNLPDFRKNPPKLDKKAYEKELKRLQAELVDLQQWVVETGARVVIVMEGRDAAGKGSAIKRITQYLNPRSARIEALPTPNSREKGQWYFQRYIEKLPTAGEIVIFDRSWYNRAGVERVMGFCTSQEYRRFLHQAPIFERLLVEDGIHLRKYWFSVSDEEQIERFEDRLSDPLRRWKLSPMDLQSITRWEDYSRAKDEMFIHTDIPSAPWYTVESEDKKRSRINVISHLLSTIPYEKIDRPLPEIPHRPDSESDYVRPPRDEFRYVPDVAAHLEEERIKKEEKAKKAKKPAKAAGKNSDKQKSSGGKGKKKSKK”, with “failed”. “MQVKENKQLCLISLGCSKNLVDSEVMLGKLYNYTLTNDAKSADVILINTCGFIESAKQESIQTILNAAKDKKEGAILIASGCLSERYKDEIKELIPEVDIFTGVGDYDKIDIMIAKKQNQFSEQVFLSEHYNARIITGSSVHAYVKISEGCNQKCSFCAIPSFKGKLQSRELDSILKEVENLALKGYTDMTFIAQDSSSFLYDKGQKDGLIQLIRAIDKQQALKSARILYLYPSSTTLELIGAIESSPIFQNYFDMPIQHISDSMLKKMRRNSSQAHHLKLLDAMKQVKESFIRSTIIVGHPEENESEFEELSAFLDEFQFDRLNIFAFSAEENTHAYSLEKVPKKTINARIKALNKIALKHQNHSFKALLNKPIKALVENKEGEYFYKARDLRWAPEVDGEILINDSELTTPLKPGHYTIAPSEFKDNILLAKVLSPF”: the protein production entry is “failed”.

Regarding “MSDNSKTRVVVGMSGGVDSSVTALLLKEQGYDVIGIFMKNWDDTDENGVCTATEDYKDVVAVADQIGIPYYSVNFEKEYWDRVFEYFLAEYRAGRTPNPDVMCNKEIKFKAFLDYAITLGADYVATGHYARVARDEDGTVHMLRGVDNGKDQTYFLSQLSQEQLQKTMFPLGHLEKPEVRRLAEEAGLSTAKKKDSTGICFIGEKNFKNFLSNYLPAQPGRMMTVDGRDMGEHAGLMYYTIGQRGGLGIGGQHGGDNAPWFVVGKDLSKNILYVGQGFYHDSLMSTSLEASQVHFTREMPEEFTLECTAKFRYRQPDSKVTVHVKGEKTEVIFAEPQRAITPGQAVVFYDGEECLGGGLIDNAYRDGQVCQYI”, the protein production entry is listed as “not failed”. Consider “MTELGTVLDGKYEILKKVGQGGMSIVYLAMDNRLNKQWAVKEIKNDGSKSTATLLKSLEREANILKDVDHPVLPRIVDIINENGTIYVVMDFVEGKPLSDVLKAEGAQDQNKVIEWGRALASALDYLHSMNPPIIYRDMKPSNVMLKPDGSVKLIDFGTAKEYIVENNADTTALGTRGYAAPEQFGDSQGRGIYNTDARTDIYNLGATLYHLVTGKNPCEPPYEIKPIRQWNPTLSSGFEQIIIKCCQPSPEDRYQSCSELLYALDHYNELDNEFKAKAKRKVAVFATMAGLSILSGCCAIFGGVKKGQLKEQDYNNKIAEAEDAVDSSDYNKAFECYKAAVDIDPTASEAYIGYMDTYAYYYTDEDVATGTGTETPAEKGIKFALRNIDKVKDDVKYEIALLYFNEVPDYSAARKYFNMVGDTENFANDVKQAKYYEAICDNKINKTADFNDSKQEVFDFQQYNSDNIDDTNTYKYVNYLNIATIYVDKLSSDEELANRTIELLQEASDKLNDNATVLSKEFPEERGVNYYSGQYSAILCSVYTYLAEKESDPVEQVAYYREAINSIDSYLSGLDMNGDAVTEKTKNVYAEYSRKKAEIYVSMGDISGDDKNYELAENVYLSAEQMLGVDDYSADLYTSHLTYLYNRYTDLYGSAPDTWDKSARNTVISVYNSGSRISMLADGKKPQWNTLIHKPVIEAIVSGTGSKTGK”, for which the protein production entry is reported as “failed”. Then “MMKKMMVLYNETSGSSESKEIAERFKKAAEARGEAVILQPSNPDIDPEEMRKNAKENQVGVLVVIGGDGTIHHAVQNFKDTIRDYQIGIIPGGTVNNFARVLSIPLKEEDAFETILAGQTTPVDFGMVNQD”, with “failed”. Regarding “MGIFETMSQVRRLPQALAAAVATPPALAGSGTLRGLIGLDDSLGEAVTTRAEALTIPAVLRARNLLSTTVARTPLVCDGTLPPFVPVAAPPGAATMQTPFHRMLATADDLLFNGVACWALDRDESGTCIGAIHIPLDTWQIEENTVRVNGKAVDPMEVCIFVGIHGGLLTHASETFTDARNLVRAAARVAQNPAALIELRQTNNAQLSPDDVDRIINGYVAARRGRNSGVGFSSSGLEVHEHEMAKENLLIEGRNAAAVDVARAMNVPAAFIDATVGGTSLSYQNAASRMIELVTFGVEPLMSAIEARLNQPDMHADHLANPLKFDPAALLDAIPTTPTIGAQPHGENS”, the protein production result was “not failed”. Next, “MGEKKGLSFFEKYLSLWVALCIVLGILIGKFMPSLPRTLSKLTIANVNMAIAVLIWAMIYPMMVKVDFSAIKRVHKGQMLKGLIVTWVTNWLIKPFSMFLISSFFIGTIFSMKLGLIDPSLAKEYIAGAILLGAAPCTAMVFVWSYLADGDPLYTLVQVATNDIIILFAFAPIVGFLMGLNKVPVPYDTLLLSVVLFVVIPLSAGYLSRRYILKTKGHKWFEQEFLPKLSTISIVGLLLTLILLFSFQGEIILENPLHIALIAIPLTIQTYFIFAIAYGWAWIWKLPHKVAAPASFIGASNFFELAVAVAIALFGLDSGAALATVVGVLEEVPIMLSLVWIANKTRHFFTAKFETGSGSKAWALLRNSLPYYPYCPNHEDIRKDTYKQMNLYPVLFFLG”: “failed”.
